Laboratory results taken from PMC4156911.
Where two headings read alike, the source gives them in different places.

B1: his pause ePEC scaffold (RNA-7604, tDNA 5420, ntDNA 5069) (mixed)
RNA: UCAUCCGGCGAUGUGUGCU
DNA 1: CTCTGAATCTCTTCCAGCACACATCAGGACGTACTGACC
DNA 2: GGTCAGTACGTCCATTCGATCTTCGGAAGAGATTCAGAG
modifications: pyrrolo-cytosine at RNA nt 5 (Z in the printed sequence)
B2: his pause ePEC scaffold + 8mer asRNA (RNA-6598) (mixed)
RNA 1: UCAUCCGGCGAUGUGUGCU
DNA 1: B1 DNA 1
DNA 2: B1 DNA 2
RNA 2: CCGGAUGA
modifications: pyrrolo-cytosine at RNA nt 5 (Z in the printed sequence)

Experiments:
[1] = molecular target: T1, E. coli core RNA polymerase (wild-type) (Escherichia coli, UniProt P0A7Z4;P0A8V2;P0A8T7;P0A800 1-329;1-1342;1-1407;1-91); test: EMSA
T1 sequence (P0A7Z4 whole entry, chain 1 of 3): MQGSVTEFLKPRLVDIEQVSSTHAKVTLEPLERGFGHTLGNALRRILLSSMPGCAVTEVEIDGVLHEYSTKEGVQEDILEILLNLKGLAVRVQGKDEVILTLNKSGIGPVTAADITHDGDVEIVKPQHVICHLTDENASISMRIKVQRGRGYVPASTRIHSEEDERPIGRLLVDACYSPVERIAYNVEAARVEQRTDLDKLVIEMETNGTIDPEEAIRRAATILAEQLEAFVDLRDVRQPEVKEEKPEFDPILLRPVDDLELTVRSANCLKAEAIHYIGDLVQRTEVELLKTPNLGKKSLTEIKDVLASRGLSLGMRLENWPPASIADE
T1 sequence (P0A8V2 whole entry, chain 2 of 3): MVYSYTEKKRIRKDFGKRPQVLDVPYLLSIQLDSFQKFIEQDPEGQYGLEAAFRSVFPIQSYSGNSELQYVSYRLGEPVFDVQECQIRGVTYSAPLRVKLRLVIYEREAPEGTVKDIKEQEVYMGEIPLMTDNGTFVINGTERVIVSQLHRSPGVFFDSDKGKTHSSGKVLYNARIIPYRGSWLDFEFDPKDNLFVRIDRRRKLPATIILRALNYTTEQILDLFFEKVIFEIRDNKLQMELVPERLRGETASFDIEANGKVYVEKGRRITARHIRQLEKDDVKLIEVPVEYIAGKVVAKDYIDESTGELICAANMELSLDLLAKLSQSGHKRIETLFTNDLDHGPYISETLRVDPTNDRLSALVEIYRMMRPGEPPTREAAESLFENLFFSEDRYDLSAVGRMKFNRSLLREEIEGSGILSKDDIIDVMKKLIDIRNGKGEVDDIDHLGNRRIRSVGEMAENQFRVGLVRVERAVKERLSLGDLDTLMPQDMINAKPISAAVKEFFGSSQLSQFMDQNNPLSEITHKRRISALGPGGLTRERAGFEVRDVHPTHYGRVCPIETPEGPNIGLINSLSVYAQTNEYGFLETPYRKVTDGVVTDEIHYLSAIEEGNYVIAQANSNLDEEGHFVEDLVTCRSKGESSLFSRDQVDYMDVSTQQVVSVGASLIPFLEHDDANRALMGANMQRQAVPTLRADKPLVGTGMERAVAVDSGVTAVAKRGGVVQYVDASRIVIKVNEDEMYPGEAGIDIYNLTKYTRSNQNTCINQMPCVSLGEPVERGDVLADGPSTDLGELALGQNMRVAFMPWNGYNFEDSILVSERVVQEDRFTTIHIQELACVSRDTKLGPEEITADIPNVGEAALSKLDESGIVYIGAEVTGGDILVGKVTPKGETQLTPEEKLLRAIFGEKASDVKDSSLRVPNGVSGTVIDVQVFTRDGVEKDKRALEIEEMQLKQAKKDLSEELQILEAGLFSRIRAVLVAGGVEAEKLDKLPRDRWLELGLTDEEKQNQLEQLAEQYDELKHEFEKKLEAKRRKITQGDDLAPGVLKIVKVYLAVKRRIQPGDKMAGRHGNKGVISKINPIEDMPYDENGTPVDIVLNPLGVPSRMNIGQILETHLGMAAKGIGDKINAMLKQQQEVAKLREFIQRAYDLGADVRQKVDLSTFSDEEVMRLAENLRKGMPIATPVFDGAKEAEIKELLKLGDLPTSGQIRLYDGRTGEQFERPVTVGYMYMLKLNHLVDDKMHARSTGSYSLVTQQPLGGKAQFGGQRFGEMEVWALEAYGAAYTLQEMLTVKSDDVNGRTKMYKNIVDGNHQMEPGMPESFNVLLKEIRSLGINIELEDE
T1 sequence (P0A800 whole entry, chain 4 of 3): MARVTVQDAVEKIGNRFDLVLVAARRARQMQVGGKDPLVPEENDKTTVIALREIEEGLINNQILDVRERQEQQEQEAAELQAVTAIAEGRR

[2] = molecular target: T1, E. coli core RNA polymerase (wild-type); test: EMSA; remark: listed apart in the source

Binder | binding result [1] | binding result [2]
B1 | binds | –
B2 | – | binds
